# T1: FcγRIIa H (FcgRIIa type H, His at position 131), extracellular domain with C-terminal His tag (human, UniProt P12318 34-217)
# T1 construct: extracellular domain; also called 2aH; FcgRIIa H; not shown: His tag at the C terminus
# T1 sequence (looked up): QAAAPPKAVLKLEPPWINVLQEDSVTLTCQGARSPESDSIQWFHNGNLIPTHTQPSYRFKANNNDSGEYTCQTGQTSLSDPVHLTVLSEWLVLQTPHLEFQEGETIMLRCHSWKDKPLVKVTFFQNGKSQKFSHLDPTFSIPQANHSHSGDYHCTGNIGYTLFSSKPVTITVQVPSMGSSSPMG
# T2: FcγRIIb, extracellular domain with C-terminal His tag (human, UniProt P31994 43-217)
# T2 construct: extracellular domain; also called 2b; FcgRIIb; not shown: His tag at the C terminus
# T2 sequence (looked up): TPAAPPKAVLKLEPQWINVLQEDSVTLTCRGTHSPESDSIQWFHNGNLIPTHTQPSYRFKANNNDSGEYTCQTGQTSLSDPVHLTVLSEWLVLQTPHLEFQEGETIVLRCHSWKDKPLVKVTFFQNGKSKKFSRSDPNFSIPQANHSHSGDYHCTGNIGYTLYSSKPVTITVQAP
# Assays:
# [1] = biological target: T1, FcγRIIa H (FcgRIIa type H, His at …); assay: SPR; He/Con_2aH divided by He/Con_2b (FcγRIIa H binding over FcγRIIb binding)
# [2] = biological target: T1, FcγRIIa H (FcgRIIa type H, His at …); assay: SPR (Biacore), relative binding, GpH7-A5/GpH7-B3/GpL16-k0 = 100
# [3] = biological target: T2, FcγRIIb, extracellular domain with …; assay: as above
Binder,He_2aH/2b (IIaH/IIb) [1],He/Con_2aH [2],He/Con_2b [3]
"GpH7-A5/GpH7-B3 variant P271_10E/GpL16-k0 (antibody, human IgG1, kappa, He Ab; alteration in one H chain only; also called He Ab) heavy 1: not shown heavy 2: not shown light: DIVMTQSPLSLPVTPGEPASISCQASESLVHSNRNTYLHWYLQKPGQSPQLLIYKVSNRFSGVPDRFSGSGSGTDFTLKISRVEAEDVGVYYCSQNTHVPPTFGQGTKVEIERTVAAPSVFIFPPSDEQLKSGTASVVCLLNNFYPREAKVQWKVDNALQSGNSQESVTEQDSKDSTYSLSSTLTLSKADYEKHKVYACEVTHQGLSSPVTKSFNRGEC",0.58 ratio,63.1 % of control,109 % of control
"GpH7-A5/GpH7-B3 variant P271_14T/GpL16-k0 (antibody, human IgG1, kappa, He Ab; alteration in one H chain only; also called He Ab) heavy 1: not shown heavy 2: not shown light: DIVMTQSPLSLPVTPGEPASISCQASESLVHSNRNTYLHWYLQKPGQSPQLLIYKVSNRFSGVPDRFSGSGSGTDFTLKISRVEAEDVGVYYCSQNTHVPPTFGQGTKVEIERTVAAPSVFIFPPSDEQLKSGTASVVCLLNNFYPREAKVQWKVDNALQSGNSQESVTEQDSKDSTYSLSSTLTLSKADYEKHKVYACEVTHQGLSSPVTKSFNRGEC",0.64 ratio,60.9 % of control,95.4 % of control
"GpH7-A5/GpH7-B3 variant S267_02A/GpL16-k0 (antibody, human IgG1, kappa, He Ab; alteration in one H chain only; also called He Ab) heavy 1: not shown heavy 2: not shown light: DIVMTQSPLSLPVTPGEPASISCQASESLVHSNRNTYLHWYLQKPGQSPQLLIYKVSNRFSGVPDRFSGSGSGTDFTLKISRVEAEDVGVYYCSQNTHVPPTFGQGTKVEIERTVAAPSVFIFPPSDEQLKSGTASVVCLLNNFYPREAKVQWKVDNALQSGNSQESVTEQDSKDSTYSLSSTLTLSKADYEKHKVYACEVTHQGLSSPVTKSFNRGEC",0.49 ratio,120 % of control,243 % of control
"GpH7-A5/GpH7-B3 variant S267_04F/GpL16-k0 (antibody, human IgG1, kappa, He Ab; alteration in one H chain only; also called He Ab) heavy 1: not shown heavy 2: not shown light: DIVMTQSPLSLPVTPGEPASISCQASESLVHSNRNTYLHWYLQKPGQSPQLLIYKVSNRFSGVPDRFSGSGSGTDFTLKISRVEAEDVGVYYCSQNTHVPPTFGQGTKVEIERTVAAPSVFIFPPSDEQLKSGTASVVCLLNNFYPREAKVQWKVDNALQSGNSQESVTEQDSKDSTYSLSSTLTLSKADYEKHKVYACEVTHQGLSSPVTKSFNRGEC",0.47 ratio,22.7 % of control,48 % of control
"GpH7-A5/GpH7-B3 variant S267_06M/GpL16-k0 (antibody, human IgG1, kappa, He Ab; alteration in one H chain only; also called He Ab) heavy 1: not shown heavy 2: not shown light: DIVMTQSPLSLPVTPGEPASISCQASESLVHSNRNTYLHWYLQKPGQSPQLLIYKVSNRFSGVPDRFSGSGSGTDFTLKISRVEAEDVGVYYCSQNTHVPPTFGQGTKVEIERTVAAPSVFIFPPSDEQLKSGTASVVCLLNNFYPREAKVQWKVDNALQSGNSQESVTEQDSKDSTYSLSSTLTLSKADYEKHKVYACEVTHQGLSSPVTKSFNRGEC",0.16 ratio,34.3 % of control,210 % of control
"GpH7-A5/GpH7-B3 variant S267_07I/GpL16-k0 (antibody, human IgG1, kappa, He Ab; alteration in one H chain only; also called He Ab) heavy 1: not shown heavy 2: not shown light: DIVMTQSPLSLPVTPGEPASISCQASESLVHSNRNTYLHWYLQKPGQSPQLLIYKVSNRFSGVPDRFSGSGSGTDFTLKISRVEAEDVGVYYCSQNTHVPPTFGQGTKVEIERTVAAPSVFIFPPSDEQLKSGTASVVCLLNNFYPREAKVQWKVDNALQSGNSQESVTEQDSKDSTYSLSSTLTLSKADYEKHKVYACEVTHQGLSSPVTKSFNRGEC",0.18 ratio,34.7 % of control,192 % of control
"GpH7-A5/GpH7-B3 variant S267_08L/GpL16-k0 (antibody, human IgG1, kappa, He Ab; alteration in one H chain only; also called He Ab) heavy 1: not shown heavy 2: not shown light: DIVMTQSPLSLPVTPGEPASISCQASESLVHSNRNTYLHWYLQKPGQSPQLLIYKVSNRFSGVPDRFSGSGSGTDFTLKISRVEAEDVGVYYCSQNTHVPPTFGQGTKVEIERTVAAPSVFIFPPSDEQLKSGTASVVCLLNNFYPREAKVQWKVDNALQSGNSQESVTEQDSKDSTYSLSSTLTLSKADYEKHKVYACEVTHQGLSSPVTKSFNRGEC",0.27 ratio,29 % of control,109 % of control
"GpH7-A5/GpH7-B3 variant S267_14T/GpL16-k0 (antibody, human IgG1, kappa, He Ab; alteration in one H chain only; also called He Ab) heavy 1: not shown heavy 2: not shown light: DIVMTQSPLSLPVTPGEPASISCQASESLVHSNRNTYLHWYLQKPGQSPQLLIYKVSNRFSGVPDRFSGSGSGTDFTLKISRVEAEDVGVYYCSQNTHVPPTFGQGTKVEIERTVAAPSVFIFPPSDEQLKSGTASVVCLLNNFYPREAKVQWKVDNALQSGNSQESVTEQDSKDSTYSLSSTLTLSKADYEKHKVYACEVTHQGLSSPVTKSFNRGEC",0.61 ratio,63.3 % of control,104 % of control
"GpH7-A5/GpH7-B3 variant S267_16H/GpL16-k0 (antibody, human IgG1, kappa, He Ab; alteration in one H chain only; also called He Ab) heavy 1: not shown heavy 2: not shown light: DIVMTQSPLSLPVTPGEPASISCQASESLVHSNRNTYLHWYLQKPGQSPQLLIYKVSNRFSGVPDRFSGSGSGTDFTLKISRVEAEDVGVYYCSQNTHVPPTFGQGTKVEIERTVAAPSVFIFPPSDEQLKSGTASVVCLLNNFYPREAKVQWKVDNALQSGNSQESVTEQDSKDSTYSLSSTLTLSKADYEKHKVYACEVTHQGLSSPVTKSFNRGEC",0.45 ratio,29.8 % of control,65.9 % of control

# Next, values leading:
He_2aH/2b (IIaH/IIb) [1],He/Con_2aH [2],He/Con_2b [3],Binder
0.26 ratio,50.8 % of control,192 % of control,"GpH7-A5/GpH7-B3 variant S267_03V/GpL16-k0 (antibody, human IgG1, kappa, He Ab; alteration in one H chain only; also called He Ab) heavy 1: not shown heavy 2: not shown light: DIVMTQSPLSLPVTPGEPASISCQASESLVHSNRNTYLHWYLQKPGQSPQLLIYKVSNRFSGVPDRFSGSGSGTDFTLKISRVEAEDVGVYYCSQNTHVPPTFGQGTKVEIERTVAAPSVFIFPPSDEQLKSGTASVVCLLNNFYPREAKVQWKVDNALQSGNSQESVTEQDSKDSTYSLSSTLTLSKADYEKHKVYACEVTHQGLSSPVTKSFNRGEC"
0.8 ratio,25.1 % of control,31.5 % of control,"GpH7-A5/GpH7-B3 variant S267_05P/GpL16-k0 (antibody, human IgG1, kappa, He Ab; alteration in one H chain only; also called He Ab) heavy 1: not shown heavy 2: not shown light: DIVMTQSPLSLPVTPGEPASISCQASESLVHSNRNTYLHWYLQKPGQSPQLLIYKVSNRFSGVPDRFSGSGSGTDFTLKISRVEAEDVGVYYCSQNTHVPPTFGQGTKVEIERTVAAPSVFIFPPSDEQLKSGTASVVCLLNNFYPREAKVQWKVDNALQSGNSQESVTEQDSKDSTYSLSSTLTLSKADYEKHKVYACEVTHQGLSSPVTKSFNRGEC"
0.34 ratio,105 % of control,310 % of control,"GpH7-A5/GpH7-B3 variant S267_09D/GpL16-k0 (antibody, human IgG1, kappa, He Ab; alteration in one H chain only; also called He Ab) heavy 1: not shown heavy 2: not shown light: DIVMTQSPLSLPVTPGEPASISCQASESLVHSNRNTYLHWYLQKPGQSPQLLIYKVSNRFSGVPDRFSGSGSGTDFTLKISRVEAEDVGVYYCSQNTHVPPTFGQGTKVEIERTVAAPSVFIFPPSDEQLKSGTASVVCLLNNFYPREAKVQWKVDNALQSGNSQESVTEQDSKDSTYSLSSTLTLSKADYEKHKVYACEVTHQGLSSPVTKSFNRGEC"
0.27 ratio,102 % of control,379 % of control,"GpH7-A5/GpH7-B3 variant S267_10E/GpL16-k0 (antibody, human IgG1, kappa, He Ab; alteration in one H chain only; also called He Ab) heavy 1: not shown heavy 2: not shown light: DIVMTQSPLSLPVTPGEPASISCQASESLVHSNRNTYLHWYLQKPGQSPQLLIYKVSNRFSGVPDRFSGSGSGTDFTLKISRVEAEDVGVYYCSQNTHVPPTFGQGTKVEIERTVAAPSVFIFPPSDEQLKSGTASVVCLLNNFYPREAKVQWKVDNALQSGNSQESVTEQDSKDSTYSLSSTLTLSKADYEKHKVYACEVTHQGLSSPVTKSFNRGEC"
0.52 ratio,19.6 % of control,37.9 % of control,"GpH7-A5/GpH7-B3 variant S267_15Y/GpL16-k0 (antibody, human IgG1, kappa, He Ab; alteration in one H chain only; also called He Ab) heavy 1: not shown heavy 2: not shown light: DIVMTQSPLSLPVTPGEPASISCQASESLVHSNRNTYLHWYLQKPGQSPQLLIYKVSNRFSGVPDRFSGSGSGTDFTLKISRVEAEDVGVYYCSQNTHVPPTFGQGTKVEIERTVAAPSVFIFPPSDEQLKSGTASVVCLLNNFYPREAKVQWKVDNALQSGNSQESVTEQDSKDSTYSLSSTLTLSKADYEKHKVYACEVTHQGLSSPVTKSFNRGEC"

# Reference: patent US20150344570A1 (published 2015)
